US9688764B2, “Methods of treating breast cancer by administering anti-human prolactin receptor (PRLR) antibodies” (REGENERON PHARMACEUTICALS, INC., priority 2013, dated 2017)

B1: H1H6959N2: human IgG1 Fc form of H2M6959N2; anti-PRLR; HCVR/LCVR SEQ ID NOs 306/314 (antibody, V domains shown)
VH: EVQLVESGGGLVQPGRSLRLSCAASGFTFDDYAMHWVRQAPGKGLEWVSGISWHSGIIGYADSVKGRFTISRDNAKNSLYLQMNSLRTEDAALYYCAKIGSYFYFDSWGQGTLVTVSS
VL: EIVLTQSPGTLSLSPGERATLSCRASQSVSSNYLAWYQQKPGQAPRLLIYGASSRATGIPDRFSGSGSGTDFTLTISRLEPEDFAVYYCQQFGSSGYTFGQGTNLEIK
modifications: human IgG1 Fc
B2: H1H6960N: human IgG1 Fc form of H2M6960N; anti-PRLR; HCVR/LCVR SEQ ID NOs 322/330 (antibody, V domains shown)
VH: EVQLVESGGGLVKPGGSLRLSCAASGITFSSYSMNWVRQAPGKGLEWVSSISTRSSLIHYADSVKGRFTISRDNAKNSLYLQMNSLRDEDTAVYYCARWDAAAAFDYWGQGTLVIVSS
VL: DIQLTQSPSFLSASVGDRVTITCWASQGISSYLAWYQQKPGKAPKLLIYVASTLQSGVPSRFSGSGSGTEFTLTISSLQPEDFATYFCQQLNSYPLTFGGGTKVEIK
modifications: human IgG1 Fc
B3: H1H6966N: human IgG1 Fc form of H2M6966N; anti-PRLR; HCVR/LCVR SEQ ID NOs 338/346 (antibody, V domains shown)
VH: QVQLVQSGAEVQKPGASVKVSCKVSGYTLTALSIHWVRQAPGKGLEWMGNFDPGDGETIHAQKFQGRVTMTGDTSTDTAYMELSSLRSEDTAVYYCVGVTFDYWGQGTLVTVSS
VL: EIVMTQSPATLSVSPGERATLSCRASQSVASNLAWYQQKPGQAPRLLLYGASTRATGIPARFSGSGSGTEFTLTISSLQSEDFALYYCQHYNNWPLTFGGGTKVEIK
modifications: human IgG1 Fc

Columns and labels:
[1] = tested on: HEK293/hPRLR/STAT5-Luc cells (human PRLR); test: STAT5-Luc luciferase reporter assay, blocking of PRL-mediated receptor activation; assay type: cell-based; settings: for Percent Blocking at 100 nM Antibody: 5 nM PRL
Text: The ability of anti-PRLR antibodies to block prolactin (PRL)-mediated receptor activation was examined in a luciferase-based reporter assay. The endocrine hormone PRL binds to the extracellular domain of its cognate receptor PRLR, triggering rapid homodimerization and activating several downstream signaling cascades.
In this example, an engineered cell line was used to determine the ability of anti-PRLR antibodies to block ligand activation of the PRLR receptor. Briefly, HEK293/hPRLR/STAT5-Luc cell lines with stable incorporation of a human PRLR expression cassette and the STAT5-dependent luciferase reporter were generated via sequential rounds of Lipofectamine® 2000-mediated transfection (LifeTechnologies, Carlsbad, Calif.). Cells were selected for at least two weeks in the presence of 500 μg/mL G418 (hPRLR) and 100 μg/mL hygromycin B (STAT5-Luc). The STAT5-Luc assay utilized 2×10^5 HEK293/hPRLR/STAT5-Luc cells seeded in complete growth medium on PDL-coated 96 well plates grown overnight at 37° C., 5% CO2. To generate antibody inhibition curves, cells were incubated (6 hr at 37° C.) with serially diluted anti-human PRLR antibodies (100 nM to 24 pM) in the presence of 5 nM constant PRL before recording signal. PRL dose response curves were generated by the addition of serially diluted PRL (100 nM to 24 pM) to cells and recording signal after a 6 hr (37° C.) incubation in the absence of antibodies. The ability of the antibodies to activate PRLR in the absence of ligand was also assessed.
Luciferase activity was measured with ONE-GLO™ reagent (Promega, Madison, Wis.). Relative light units (RLUs) were measured on a Victor luminometer (Perkin Elmer, Shelton, Conn.). EC50/IC50 values were determined from a four-parameter logistic equation over an 8-point response curve using GraphPad Prism. Percent blocking and percent activation are reported for the highest antibody dose.

[2] = target: T1, hPRLR.mFc (soluble dimeric human PRLR) (Homo sapiens, UniProt P16471); test: Surface plasmon resonance (Biacore T200), mAb-capture format; assay type: binding; settings: antibody-capture format, analyte hPRLR.mFc
T1 construct: dimeric (hPRLR.mFc)
T1 sequence (P16471 with tags, fused parts or gaps): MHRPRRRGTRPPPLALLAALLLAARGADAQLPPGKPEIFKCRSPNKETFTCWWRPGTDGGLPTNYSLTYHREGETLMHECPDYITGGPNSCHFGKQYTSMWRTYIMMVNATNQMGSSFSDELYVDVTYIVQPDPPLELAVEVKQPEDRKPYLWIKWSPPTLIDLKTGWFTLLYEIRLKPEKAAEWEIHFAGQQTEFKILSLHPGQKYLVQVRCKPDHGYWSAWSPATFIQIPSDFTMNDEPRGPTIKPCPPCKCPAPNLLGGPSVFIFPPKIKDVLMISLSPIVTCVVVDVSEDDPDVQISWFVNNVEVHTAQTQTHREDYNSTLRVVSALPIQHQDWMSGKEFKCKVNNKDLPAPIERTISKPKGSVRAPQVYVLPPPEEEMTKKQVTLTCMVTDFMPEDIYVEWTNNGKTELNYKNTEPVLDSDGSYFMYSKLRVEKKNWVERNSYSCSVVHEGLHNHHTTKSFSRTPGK
Method: (§1) Antibodies, expressed as human IgG1 Fc “[…]” designations), were captured onto an anti-human Fc sensor surface (mAb-capture format), and soluble monomeric (hPRLR.mmh; SEQ ID NO:401, or macaca fascicularis (mf) PRLR.mmh; SEQ ID NO:403) or dimeric (hPRLR.mFc; SEQ ID NO:402) PRLR protein was injected over the sensor surface. Measurements were conducted on a T200 Biacore instrument. Kinetic association (ka) and dissociation (kd) rate constants were determined by processing and fitting the data to a 1:1 binding model using Scrubber 2.0 curve fitting software.

[3] = target: T2, hPRLR.mmh (soluble monomeric human PRLR) (Homo sapiens, UniProt P16471); test: as above; assay type: binding; settings: antibody-capture format, analyte hPRLR.mmh
T2 construct: soluble monomeric (hPRLR.mmh); mmh (myc-myc-hexahistidine)
T2 sequence (P16471 with tags, fused parts or gaps): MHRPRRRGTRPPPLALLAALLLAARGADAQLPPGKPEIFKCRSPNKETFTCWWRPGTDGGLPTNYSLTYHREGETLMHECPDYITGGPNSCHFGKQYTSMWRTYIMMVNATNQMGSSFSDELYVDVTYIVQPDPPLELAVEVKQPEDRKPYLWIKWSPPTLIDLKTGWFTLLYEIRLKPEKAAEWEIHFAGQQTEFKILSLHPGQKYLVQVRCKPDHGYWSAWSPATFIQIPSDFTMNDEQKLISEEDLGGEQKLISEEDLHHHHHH
Method: as §1

[4] = target: mfPRLR.mmh (monomeric macaca fascicularis PRLR); test: as above; assay type: binding; settings: antibody-capture format, analyte mfPRLR.mmh
mfPRLR.mmh (monomeric macaca fascicularis PRLR), sequence (as listed by the source): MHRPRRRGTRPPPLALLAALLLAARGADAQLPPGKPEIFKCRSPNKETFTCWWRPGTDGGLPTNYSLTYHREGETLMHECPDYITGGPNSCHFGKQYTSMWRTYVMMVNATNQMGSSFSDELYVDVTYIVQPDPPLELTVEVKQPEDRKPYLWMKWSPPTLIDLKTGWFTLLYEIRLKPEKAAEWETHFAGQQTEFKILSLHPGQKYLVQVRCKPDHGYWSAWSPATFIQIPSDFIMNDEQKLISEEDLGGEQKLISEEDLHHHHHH
Method: as §1

Molecule | Percent Blocking at 100 nM Antibody [1] | Kd ([2]; 25° C.) | T½ ([2]; 25° C.) | Kd ([2]; 37° C.) | T½ ([2]; 37° C.) | Kd ([3]; 25° C.) | T½ ([3]; 25° C.) | Kd ([3]; 37° C.) | T½ ([3]; 37° C.) | Kd ([4]; 25° C.) | T½ ([4]; 25° C.) | Kd ([4]; 37° C.) | T½ ([4]; 37° C.) | IC50 ([1]; 5 nM constant PRL, 6 hr at 37° C.)
B1 | 52% | 1.45 nM | 22.3 min | 4.51 nM | 5.0 min | 202 nM | 0.3 min | 681 nM | 0.4 min | 129 nM | 0.7 min | 370 nM | 0.7 min | –
B2 | 100% | 0.141 nM | 324.4 min | 0.5 nM | 78.7 min | 6.74 nM | 15.8 min | 16.2 nM | 5.8 min | 6.2 nM | 19.8 min | 14.9 nM | 9.0 min | 1.58 nM
B3 | 54% | 0.0439 nM | 282.9 min | 0.0672 nM | 91.3 min | 0.302 nM | 44.9 min | 0.607 nM | 12.0 min | 0.416 nM | 35.6 min | 0.982 nM | 9.6 min | –
